Experimental data as given in paper PMC2728497.

Biological target: Aβ1-40wt (human)
Assay: SEC

stoichiometry N: 2
Substance: Aβ1-40wt (peptide)
